Assay results as given in article PMC8155523, “Non-covalent Interaction With SUMO Enhances the Activity of Human Cytomegalovirus Protein IE1” (Frontiers in Cell and Developmental Biology, 2021).

Molecular target: T1, SUMO1 (UniProt P63165 1-97)
T1 construct: SUMO1, expressed from SUMO1-pQE80L; Uniformly 15N-labelled for NMR; Plasmid obtained from Rama Koti, TIFR, Mumbai; also called 15N-SUMO1; 15N-wt-SUMO1; source: E. coli BL21 (DE3), 15NH4Cl-M9 medium, purified (Ni-NTA, Superdex 75)
Assay: NMR titration; IE1-SIM peptides titrated into ~0.3 mM 15N-SUMO1 or 15N-SUMO2 up to 1:4 (SUMO:SIM); 15N-HSQC, 298K, 800 MHz; PBS, 5 mM DTT, 10% D2O; CSPs fit to a 1:1 model
Conditions: both partners purified

T1 sequence (P63165 1-97): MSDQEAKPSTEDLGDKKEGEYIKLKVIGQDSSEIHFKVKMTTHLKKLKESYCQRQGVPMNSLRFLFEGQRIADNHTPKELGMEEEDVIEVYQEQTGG

Row | Binder | Kd [µM]
1 | RPLITKPEVISVMKRRIEE (Human Cytomegalovirus Immediate-Early protein 1 (IE1), peptide around SIM1 (VISV, aa 335-338); source: synthetic peptide (Lifetein)) [IE1-SIM1 peptide] | 134 ± 23.2
2 | PATIPLSSVIVAENSDQEE (Human Cytomegalovirus Immediate-Early protein 1 (IE1), peptide around SIM2 (VIVA, aa 416-419); source: synthetic peptide (Lifetein)) [IE1-SIM2 peptide] | 136 ± 32
